Data reported in doi:10.1101/2022.01.09.475535.

Target: SF3B1 N-terminal region, residues 147-462 (SFB1^147-462) (human) (UniProt O75533)
Experiment: ITC

Chain of SF3B1 N-terminal region, residues 147-462 (SFB1^147-462) (human) (O75533 147-462): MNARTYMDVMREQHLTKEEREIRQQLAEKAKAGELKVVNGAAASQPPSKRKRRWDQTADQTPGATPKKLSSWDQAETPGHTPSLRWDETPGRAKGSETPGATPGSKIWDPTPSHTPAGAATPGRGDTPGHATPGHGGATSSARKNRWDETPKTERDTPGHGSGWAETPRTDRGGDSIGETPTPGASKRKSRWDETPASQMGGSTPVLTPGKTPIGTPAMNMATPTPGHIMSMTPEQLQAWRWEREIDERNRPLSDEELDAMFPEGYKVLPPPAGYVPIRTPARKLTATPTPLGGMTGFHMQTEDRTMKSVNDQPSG

“U2AF2^12UL (nearly full-length U2AF2, residues 141-471) (domain or fragment)” was tested. Which stoichiometry N (U2AF2^12UL per SF3B1 ULM region) did it give?
The stoichiometry N (U2AF2^12UL per SF3B1 ULM region) was 2.
